The source of these data is paper PMC11224324.

For assay [1], the target named is Ct_HPt, histidine phosphotransfer protein from Chaetomium thermophilum (residues 9-175), Streptag removed (Chaetomium thermophilum).
Assay [2] addresses Histag-Ct_HPt (residues 9-175), labelled with Red-Tris NTA dye (Chaetomium thermophilum). Kind of assay: MST; Histag-Ct_HPt labelled with Red-Tris NTA dye held constant; REC-1 domain in sixteen two-fold dilutions from 1 mM (0.32 mM for REC_hHK6); PBS + 0.05% Tween-20; medium MST power; hyperbolic fit, 1:1 model; mean of two titrations.
Assay [3] addresses REC_(hHK3), REC-1 domain of hybrid histidine kinase hHK3 (group III, ortholog of Nik1) from Chaetomium thermophilum (Chaetomium thermophilum). Kind of assay: SEC-MALS; 20 µg of protein injected on PROTEIN KW-403 4F (Shodex); 50 mM Hepes pH 7, 150 mM NaCl; 0.35 ml/min; without and with PAM or BeF3-.
The target in assay [4] is REC_(hHK6), REC-1 domain of hybrid histidine kinase hHK6 (group VI, ortholog of Sln1) from Chaetomium thermophilum (Chaetomium thermophilum). The description is as above.

Ct_HPt, histidine phosphotransfer protein from Chaetomium thermophilum (residues 9-175), Streptag removed (Chaetomium thermophilum), sequence (main, as listed by the source): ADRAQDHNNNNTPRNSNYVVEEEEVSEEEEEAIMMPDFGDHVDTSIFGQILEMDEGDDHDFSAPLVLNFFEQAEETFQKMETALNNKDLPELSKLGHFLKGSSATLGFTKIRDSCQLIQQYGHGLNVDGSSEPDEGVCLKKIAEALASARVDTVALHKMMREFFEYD

Regarding “REC_(hHK4), REC-1 domain of hybrid histidine kinase hHK4 (group IV) from Chaetomium thermophilum (domain or fragment)”, the phosphorylated Ct HPt (Ct HPt~P) on native gel after 30 min with REC-1 domain pre-phosphorylated with PAM (control of Ct HPt with PAM alone ~15%; none with AcP) in assay [1] was found to be 35%. On to “REC_(hHK5), REC-1 domain of hybrid histidine kinase hHK5 (group V) from Chaetomium thermophilum (domain or fragment)”, for which, in assay [2], the Kd came out at 94 µM.

In turn, “REC_(hHK3), REC-1 domain of hybrid histidine kinase hHK3 (group III, ortholog of Nik1) from Chaetomium thermophilum (domain or fragment)” showed a stoichiometry N in assay [3] of 3.

In assay [4], “REC_(hHK6), REC-1 domain of hybrid histidine kinase hHK6 (group VI, ortholog of Sln1) from Chaetomium thermophilum (domain or fragment)” gave a stoichiometry N of 2. The substance “REC_(hHK11), REC-1 domain of hybrid histidine kinase hHK11 (group XI) from Chaetomium thermophilum (domain or fragment)” yielded a phosphorylated Ct HPt (Ct HPt~P) on native gel after 30 min with REC-1 domain pre-phosphorylated with PAM (control of Ct HPt with PAM alone ~15%; none with AcP) in assay [1] of 35%.

A word on the Kd: it is the equilibrium constant for the complex coming apart. In general, stoichiometry N refers to the number of molecules, sites or subunits per partner or assembly.
